# Laboratory results reported in article PMC10009750, “Development of Selective ADAMTS-5 Peptide Substrates to Monitor Proteinase Activity” (Journal of Medicinal Chemistry, 2023).
# Non-standard residues stand in square brackets, D forms with d. No end group written: not given here. Tyr(3-NO2) = N[C@@H](Cc1ccc(O)c([N+](=O)[O-])c1)C(=O)O; 2Abz = Nc1ccccc1C(=O)O
# T1: TS5-5 (ADAMTS-5) (Homo sapiens, UniProt Q9UNA0)
# T1 construct: ADAMTS-5 (i.e. TS5-5, residues 264–555); FLAG; made in house; host or cells: HEK293 cells (previously transfected stocks)
# T1 sequence (Q9UNA0 264-555): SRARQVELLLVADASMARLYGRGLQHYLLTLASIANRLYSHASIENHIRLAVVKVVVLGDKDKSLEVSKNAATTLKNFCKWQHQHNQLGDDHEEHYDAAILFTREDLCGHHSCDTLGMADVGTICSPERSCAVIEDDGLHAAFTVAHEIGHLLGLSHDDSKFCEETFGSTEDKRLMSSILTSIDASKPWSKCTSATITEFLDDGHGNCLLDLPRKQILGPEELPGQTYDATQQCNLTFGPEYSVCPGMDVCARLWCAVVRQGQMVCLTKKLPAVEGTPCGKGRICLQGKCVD
# T2: TS5-5 (combined catalytic and disintegrin domain of ADAMTS-5) (Homo sapiens, UniProt Q9UNA0)
# T2 construct: ADAMTS-5 (i.e. TS5-5, residues 264–555); FLAG; made in house; host or cells: HEK293 cells (previously transfected stocks)
# T2 sequence (Q9UNA0 264-555): T1 sequence (Q9UNA0 264-555)
# T3: TS4-4 (ADAMTS-4) (Homo sapiens, UniProt O75173)
# T3 construct: TS4-4, TS5-5 = catalytic and disintegrin domains; made in house; host or cells: HEK293 cells (previously transfected stocks)
# T3 sequence (O75173 213-519 limits assumed): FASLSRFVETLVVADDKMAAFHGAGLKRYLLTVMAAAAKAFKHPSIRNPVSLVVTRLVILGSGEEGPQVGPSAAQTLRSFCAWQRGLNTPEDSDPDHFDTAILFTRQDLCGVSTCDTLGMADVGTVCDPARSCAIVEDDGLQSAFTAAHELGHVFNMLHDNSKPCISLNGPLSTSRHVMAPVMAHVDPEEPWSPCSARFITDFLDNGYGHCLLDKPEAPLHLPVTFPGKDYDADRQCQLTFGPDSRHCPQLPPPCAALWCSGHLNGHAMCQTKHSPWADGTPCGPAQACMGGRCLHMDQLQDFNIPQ
# B1: KY(NO2)SENESRGK(Abz)IYYKKG (26) (peptide)
# peptide: K[Tyr(3-NO2)]SENESRGK(2Abz)IYYKKG
# B2: KY(NO2)TESESRGK(Abz)IYYKKG (3) (peptide)
# peptide: K[Tyr(3-NO2)]TESESRGK(2Abz)IYYKKG
# B3: KY(NO2)TENESRGK(Abz)IYYKKG (19) (peptide)
# peptide: K[Tyr(3-NO2)]TENESRGK(2Abz)IYYKKG
# Legend:
# [1] = target: T1, TS5-5 (ADAMTS-5); assay: Determination of kinetic parameters (kcat and Km) for substrate cleavage by TS5-5, inner-filter corrected; type: biochemical; conditions: for decrease in Km compared to the current substrate / lower catalytic rate constant (kcat) compared to the current substrate: TS5-5
# Procedure: A solution of Abz-TESE↓SRGAIY-Dpa-KK-NH2/3/26 (5 mM) or 19/23 (1 mM) in DMSO underwent a 2-fold serial dilution with freshly prepared TNC buffer containing 0.005% (v/v) Brij-35. This gave initial concentrations in the following range: 222.22 to 0.87 μM (Abz-TESE↓SRGAIY-Dpa-KK-NH2/3/23/26) and 177.78 to 1.39 μM (19). Eight substrate concentrations (180 μL) within these ranges (including outer numbers) were added to a 96-well black microplate in triplicate and incubated at 37 °C (20 min). TNC buffer with 0.005% (v/v) Brij-35 was added to substrate-only control wells in a single replicate (180 μL). TS5-5 proteinase was thawed from −80 or −20 °C, made up in TNC buffer with 0.005% (v/v) Brij-35 (300 nM) and added to substrate wells (20 μL). TNC buffer was added to substrate-only control wells (20 μL). Fluorescence intensity was measured at 37 °C for 1 h with readings every 20 s. The rate of substrate cleavage was determined at each substrate concentration and expressed as the mean ± SEM in μM s^–1. The subsequent data was fitted to the Michaelis–Menten eq 2: [drawing 2] 2 where v is the rate of the reaction, Vmax is the maximal rate of the reaction, Km is the Michaelis constant, and [S] is the substrate concentration. This equation enabled the Km value to be determined. The catalytic rate constant kcat was determined from eq 3: [drawing 3] 3 where [E] is the concentration of proteinase, and kcat and Vmax are as defined previously. These initial Km and kcat parameters were determined from n = 3–4 independent experiments with final values for these parameters reported after a correction for the inner-filter effect.
# This was performed based on the protocol described in Liu et al.([40]) to correct for quenching of the released Abz fluorophore by uncleaved substrate. Two sets of initial substrate concentrations were prepared as described in the previous section. Both sets of substrate concentrations (180 μL) were added to a 96-well black microplate in triplicate. Two buffer-alone controls with TNC buffer containing 0.005% (v/v) Brij-35 (180 μL) were also added in triplicate. All solutions were incubated at 37 °C (20 min). Abz fluorophore (1 M) in DMSO was serially diluted to 1 mM in DMSO, before further dilution to 100 μM using TNC buffer containing 0.005% (v/v) Brij-35. TNC buffer containing 0.005% (v/v) Brij-35 (20 μL) was added to the first set of substrate concentrations as well as to the first buffer-alone control. Abz fluorophore (20 μL, 100 μM) was added to the second set of substrate concentrations as well as the second buffer-alone control. The end-point fluorescence intensity was measured at 37 °C using λex = 300 nm and λem = 430 nm. At each substrate concentration, […] to give the actual fluorescence of the Abz fluorophore (RFUAbz). These values were divided by RFUAbz at a substrate concentration of 0 μM to give the correction factor for each concentration. The rates for each substrate concentration described in the previous section were divided by their respective correction factors (Tables S6–S10) to deliver the inner-filter corrected kcat and Km values.
# [2] = target: combined catalytic and disintegrin domain of ADAMTS-5 (TS5-5) (UniProt Q9UNA0)
# [3] = target: T2, TS5-5 (combined catalytic and disintegrin domain of ADAMTS-5); assay: Cleavage of FRET peptide substrates by TS5-5 in solution (activity/selectivity studies); type: biochemical; conditions: substrate 20 μM, TNC buffer with 0.005% (v/v) Brij-35, 37 °C; mean of 3–4 independent experiments in triplicate
# Procedure: (§1) All proteinase assays were performed at 37 °C in a SpectraMax M5 spectrophotometer (Molecular Devices, San Jose, USA) using a 96-well black microplate (Greiner bio-one, Stonehouse, UK) unless otherwise stated. […] N-TIMP-3 was purified as described previously[30] and CT-1746 was a gift from Dr. Yoshifumi Itoh (Kennedy Institute of Rheumatology, University of Oxford). All analyses were carried out using Prism 9 software (GraphPad, La Jolla, CA, USA).
# To test whether active TS5-5 had been purified, three concentrations of proteinase were assayed. A solution of Abz-TESE↓SRGAIY-Dpa-KK-NH2 (22.22 μM) in freshly prepared TNC buffer with 0.02% (v/v) Brij-35 (180 μL) was added to a 96-well black microplate in triplicate for each proteinase concentration. A substrate-only background control was also added in triplicate (180 μL). The resultant solutions were incubated at 37 °C (30 min). TS5-5 proteinase in TNC buffer with 0.02% (v/v) Brij-35 (20 μL) was added to wells to give final proteinase concentrations of 80 nM, 40 nM and 20 nM. TNC buffer with 0.02% (v/v) Brij-35 (20 μL) was also added to background control wells. The change in RFU was measured at 37 °C for 1 h, with readings every 20 s. Following subtraction of background fluorescence intensity, linear regression analysis of the linear part of each curve was used to determine the cleavage rate, which was expressed as the mean ± SEM in RFU s^–1. For cases where a single concentration of TS5-5 or TS4-4 was assayed, the same procedure was used but with 0.005% (v/v) Brij-35 and using the 5-FAM-AE↓LQGRPISIAK-TAMRA substrate for TS4-4 (0.56 μM). To convert cleavage rates to nM s^–1 nM^–1, the rate in RFU s^–1 was divided by the final concentration of proteinase (nM), then divided by the gradient of the calibration curve for Abz or 5-FAM (expressed in RFU nM^–1).
# (§2) Selectivity studies are described for Abz-TESE↓SRGAIY-Dpa-KK-NH2, the library parent peptide 3, and hit peptides 18–26. A solution of Abz-TESE↓SRGAIY-Dpa-KK-NH2 (22.22 μM) in freshly prepared TNC buffer with 0.005% (v/v) Brij-35 (90 μL) was added to a 96-well clear bottom microplate (Greiner bio-one, Stonehouse, UK) in triplicate. A substrate-only background control was also added in triplicate (90 μL). The resultant solutions were incubated at 37 °C (30 min). An ADAMTS or MMP proteinase was added to substrate wells (10 μL) to give a final proteinase concentration of either 50–90 nM (TS4-4), 25–200 nM (TS5-5), 5–10 nM (MMP-2ΔC), 30 nM (MMP-9ΔC), 92 nM (MMP-1), or 3 μM (MMP-3). TNC buffer with 0.005% (v/v) Brij-35 was added to substrate-only control wells (10 μL). The relative fluorescence intensity was measured at 37 °C for 1 h with readings every 20 s. Activity was read from underneath the microplate, which was covered with a low evaporation lid. […] For each ADAMTS and MMP proteinase, the assay was performed 2–4 times. […] Final rates were expressed as a percentage of substrate cleavage by TS5-5 (mean ± SEM) or in μM s^–1 μM^–1 of proteinase.
# [4] = system: MMP-9ΔC (catalytic domain of MMP-9); assay: Selectivity studies: cleavage of FRET peptide substrates by MMP-9ΔC; type: biochemical; conditions: substrate 20 μM, after 48 h at an MMP-9 concentration of 30 nM, 37 °C
# Procedure: as §1, §2
# [5] = target: T3, TS4-4 (ADAMTS-4); assay: Selectivity studies: cleavage of FRET peptide substrates by TS4-4; type: biochemical; conditions: substrate 20 μM, TS4-4 50–90 nM, TNC buffer with 0.005% (v/v) Brij-35, 37 °C; mean of 3–4 independent experiments in triplicate
# Procedure: as §1, §2
# [6] = TS5-5, TNC buffer with 0.005% (v/v) Brij-35, 37 °C, corrected for inner filter effect, mean ± SEM from 3–4 independent experiments in triplicate
# [7] = supplementary CSV copy of Table 3, TS5-5, 37 °C
molecule,measurement,setting,value
KY(NO2)SESESRGK(Abz)IYYKKG (K[Tyr(3-NO2)]SESESRGK(Abz)IYYKKG) [Compound 23],decrease in Km compared to the current substrate,[1],~2 fold
same,lower catalytic rate constant (kcat) compared to the current substrate,[1],~3 fold
same,Km,[1]; [6],64.6 ± 4.6 µM
same,kcat,[1]; [6],1.14 ± 0.11 s⁻¹
same,kcat/Km,[1]; [6],18200 ± 2940 M⁻¹ s⁻¹
same,kcat,[1]; [7],1.14 ± 0.11 s⁻¹
"ortho-aminobenzoyl(Abz)-TESE↓SRGAIY-N-3-[2,4-dinitrophenyl]-L-2,3-diaminopropionyl(Dpa)-KK-NH2 (peptide)","Km of cleavage of the FRET peptide by TS5-5 (Michaelis-Menten fit, corrected for the inner-filter effect, 37 °C, TNC buffer with 0.005% Brij-35)",[2],125 µM
KY(NO2)NESESKAK(Abz)VHYKKG (K[Tyr(3-NO2)]NESESKAK(2Abz)V-{H2N-Tyr-Lys-Lys-Gly}) [Compound 25],rate of cleavage by TS5-5,[3],1.78 × 10^–2 μM s^–1 μM^–1
same,cleavage by MMP-9ΔC,[4],no signs of cleavage
KY(NO2)QDSESBAK(Abz)JHYUKG [Compound 20],rate of cleavage by TS5-5,[3],1.22 × 10^–3 μM s^–1 μM^–1
same,cleavage by MMP-9ΔC,[4],no signs of cleavage
KY(NO2)TETESOAK(Abz)IYFKKG [Compound 22],rate of cleavage by TS5-5,[3],7.38 × 10^–2 μM s^–1 μM^–1
KY(NO2)NDTESOAK(Abz)AHFUKG [Compound 24],rate of cleavage by TS5-5,[3],1.41 × 10^–4 μM s^–1 μM^–1
same,cleavage by MMP-9ΔC,[4],no signs of cleavage
KY(NO2)TENESRGK(Abz)IYYKKG (K[Tyr(3-NO2)]TENESRGK(Abz)IYYKKG) [Compound 19],rate of cleavage by TS4-4,[5],0.08–0.10 μM s^–1 μM^–1
same,decrease in Km compared to the current substrate,[1],~4 fold
same,lower catalytic rate constant (kcat) compared to the current substrate,[1],~7 fold
same,Km,[1]; [6],30.5 ± 2 µM
same,kcat,[1]; [6],0.53 ± 0.014 s⁻¹
same,kcat/Km,[1]; [6],17500 ± 1080 M⁻¹ s⁻¹
same,kcat,[1]; [7],0.53 ± 0.014 s⁻¹
B1,"Km of cleavage of the FRET peptide by TS5-5 (Michaelis-Menten fit, corrected for the inner-filter effect, 37 °C, TNC buffer with 0.005% Brij-35)",[2],76.9 µM
B2,"Km of cleavage of the FRET peptide by TS5-5 (Michaelis-Menten fit, corrected for the inner-filter effect, 37 °C, TNC buffer with 0.005% Brij-35)",[2],29.5 µM
B3,"Km of cleavage of the FRET peptide by TS5-5 (Michaelis-Menten fit, corrected for the inner-filter effect, 37 °C, TNC buffer with 0.005% Brij-35)",[2],30.5 µM
